Target: human LH3 protein with His-tag at the amino-terminus, produced in Sf9 cells (human) (UniProt O60568)
Test: cell-based or functional assay

Chain of human LH3 protein with His-tag at the amino-terminus, produced in Sf9 cells (human) (O60568 25-738): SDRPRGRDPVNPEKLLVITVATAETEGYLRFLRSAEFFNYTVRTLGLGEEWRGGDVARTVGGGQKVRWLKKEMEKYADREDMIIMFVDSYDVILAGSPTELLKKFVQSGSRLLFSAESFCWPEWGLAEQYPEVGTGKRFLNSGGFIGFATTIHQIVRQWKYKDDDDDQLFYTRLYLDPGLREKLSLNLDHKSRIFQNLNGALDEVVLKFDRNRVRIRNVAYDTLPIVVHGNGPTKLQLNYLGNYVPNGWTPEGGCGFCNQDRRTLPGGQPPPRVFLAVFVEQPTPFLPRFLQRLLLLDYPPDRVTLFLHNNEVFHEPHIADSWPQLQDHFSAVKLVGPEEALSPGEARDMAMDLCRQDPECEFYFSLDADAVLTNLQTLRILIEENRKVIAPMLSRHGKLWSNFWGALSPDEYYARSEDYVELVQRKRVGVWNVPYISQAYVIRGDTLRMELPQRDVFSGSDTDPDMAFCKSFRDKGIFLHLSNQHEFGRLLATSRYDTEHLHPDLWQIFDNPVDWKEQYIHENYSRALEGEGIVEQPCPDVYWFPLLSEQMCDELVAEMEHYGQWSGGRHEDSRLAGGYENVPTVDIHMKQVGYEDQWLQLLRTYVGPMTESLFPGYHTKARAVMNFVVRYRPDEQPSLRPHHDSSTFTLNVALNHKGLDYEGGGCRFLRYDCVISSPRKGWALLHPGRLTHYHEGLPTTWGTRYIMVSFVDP

GGT activity in the presence of antibody (% of activity with nonimmune serum): 100%
Substance: monoclonal antibodies against His-tag (Clontech) (antibody)

Reference: patent US20050048600A1
